The values below come from publication PMC11136987 (2024).

One may read the Kd as the concentration at which binding is half-saturated.

Assay [1] concerns the target recombinant full-length HAX-1 (UniProt O00165 1-279). As to the kind of experiment: BLI. On the technique in general: In BLI a coated tip is dipped into the sample, and binding shifts an interference pattern.
Assay [2] concerns the target recombinant full-length ASC (UniProt Q9ULZ3 1-195). Put plainly: BLI.

recombinant full-length ASC, sequence (Q9ULZ3 whole entry): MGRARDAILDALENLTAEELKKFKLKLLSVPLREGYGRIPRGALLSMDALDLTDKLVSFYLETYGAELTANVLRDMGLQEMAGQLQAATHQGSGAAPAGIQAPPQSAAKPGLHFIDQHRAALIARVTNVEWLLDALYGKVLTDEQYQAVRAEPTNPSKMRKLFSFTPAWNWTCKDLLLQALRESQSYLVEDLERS
recombinant full-length HAX-1, sequence (O00165 whole entry): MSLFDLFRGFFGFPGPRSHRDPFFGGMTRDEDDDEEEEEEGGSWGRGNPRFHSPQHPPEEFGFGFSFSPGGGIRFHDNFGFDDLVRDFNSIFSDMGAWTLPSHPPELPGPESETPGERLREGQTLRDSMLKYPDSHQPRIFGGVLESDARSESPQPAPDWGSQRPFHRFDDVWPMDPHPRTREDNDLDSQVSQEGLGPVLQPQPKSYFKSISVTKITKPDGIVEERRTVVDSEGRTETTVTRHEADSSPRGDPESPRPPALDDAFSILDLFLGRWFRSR

B1: recombinant partial NLRP3 1-536aa (domain or fragment)
chain: MKMASTRCKLARYLEDLEDVDLKKFKMHLEDYPPQKGCIPLPRGQTEKADHVDLATLMIDFNGEEKAWAMAVWIFAAINRRDLYEKAKRDEPKWGSDNARVSNPTVICQEDSIEEEWMGLLEYLSRISICKMKKDYRKKYRKYVRSRFQCIEDRNARLGESVSLNKRYTRLRLIKEHRSQQEREQELLAIGKTKTCESPVSPIKMELLFDPDDEHSEPVHTVVFQGAAGIGKTILARKMMLDWASGTLYQDRFDYLFYIHCREVSLVTQRSLGDLIMSCCPDPNPPIHKIVRKPSRILFLMDGFDELQGAFDEHIGPLCTDWQKAERGDILLSSLIRKKLLPEASLLITTRPVALEKLQHLLDHPRHVEILGFSEAKRKEYFFKYFSDEAQARAAFSLIQENEVLFTMCFIPLVCWIVCTGLKQQMESGKSLAQTSKTTTAVYVFFLSSLLQPRGGSQEHGLCAHLWGLCSLAADGIWNQKILFEESDLRNHGLQKADVSAFLRMNLFQKEVDCEKFYSFIHMTFQEFFAAMYYLL
modifications: biotinylated (sites not given)
In the case of B1, the Kd in assay [1] was found to be 3.38 nM; in assay [2], 7.33 nM.
